Measured values as given in US20230049152A1 (Genentech, published 2023).
Residue numbers refer to the chain shown, from its start.

Tests used:
D14A = molecular target: T1, D14A; test: flow cytometry, HEK293 transfected with hCCR8 D14A with C-terminal FLAG; sheet prints [huCCR8]=0.02 ug/ml
T1 construct: single alanine mutant of hCCR8; also called hCCR8 D14A
T1 receptor chain: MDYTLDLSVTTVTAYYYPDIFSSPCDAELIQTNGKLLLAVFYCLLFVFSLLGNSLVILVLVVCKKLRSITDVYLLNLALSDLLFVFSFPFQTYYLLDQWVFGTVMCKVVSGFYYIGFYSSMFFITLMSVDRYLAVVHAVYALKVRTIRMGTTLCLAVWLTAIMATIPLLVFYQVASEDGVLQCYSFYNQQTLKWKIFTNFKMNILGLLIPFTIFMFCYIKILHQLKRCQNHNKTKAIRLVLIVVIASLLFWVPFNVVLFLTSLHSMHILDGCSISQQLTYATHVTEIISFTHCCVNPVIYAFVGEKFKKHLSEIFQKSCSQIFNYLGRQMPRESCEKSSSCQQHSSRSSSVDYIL

S22A = molecular target: T2, S22A; test: flow cytometry, HEK293 transfected with hCCR8 S22A with C-terminal FLAG; sheet prints [huCCR8]=0.02 ug/ml
T2 construct: single alanine mutant of hCCR8; also called hCCR8 S22A
T2 receptor chain: T1 receptor chain with A14D, S22A

T13A = molecular target: T3, T13A; test: flow cytometry, HEK293 transfected with hCCR8 T13A with C-terminal FLAG; sheet prints [huCCR8]=0.02 ug/ml
T3 construct: single alanine mutant of hCCR8; also called hCCR8 T13A
T3 receptor chain: T1 receptor chain with T13A, A14D
Procedure: (§1) FIGS. 16A-16B depict the epitope maps for hu.Ab5.H13L1 (FIG. 16A) and hu.Ab4.H12L3 (FIG. 16B) mAbs.
(§2) To epitope map fucosylated hu.Ab5.H13L1, the binding to alanine point mutations in human CCR8 was analyzed by flow cytometry.

V12A = molecular target: T4, V12A; test: flow cytometry, HEK293 transfected with hCCR8 V12A with C-terminal FLAG; sheet prints [huCCR8]=0.02 ug/ml
T4 construct: single alanine mutant of hCCR8; also called hCCR8 V12A
T4 receptor chain: T1 receptor chain with V12A, A14D

D19A = molecular target: T5, D19A; test: flow cytometry, HEK293 transfected with hCCR8 D19A with C-terminal FLAG; sheet prints [huCCR8]=0.02 ug/ml
T5 construct: single alanine mutant of hCCR8; also called hCCR8 D19A
T5 receptor chain: T1 receptor chain with A14D, D19A
Procedure: as §1, §2

P18A = molecular target: T6, P18A; test: flow cytometry, HEK293 transfected with hCCR8 P18A with C-terminal FLAG; sheet prints [huCCR8]=0.02 ug/ml
T6 construct: single alanine mutant of hCCR8; also called hCCR8 P18A
T6 receptor chain: T1 receptor chain with A14D, P18A

Measured: binding result

B1: hu.Ab5.H13L1 (antibody, human IgG1, kappa)
heavy: not shown
light: DIQVTQSPSSLSASVGDRVTITCQASENIANALAWYQQKPGKPPKFLIYGASNLASGVPSRFSGSGSGTDFTFTISSLQPEDIATYYCQQAYYGNSFVEGTFGGGTKVEIKRTVAAPSVFIFPPSDEQLKSGTASVVCLLNNFYPREAKVQWKVDNALQSGNSQESVTEQDSKDSTYSLSSTLTLSKADYEKHKVYACEVTHQGLSSPVTKSFNRGEC
notes: fucosylated human IgG1; also called Ab5 variant
binds: all assays above
